This passage reports Relative bioactivity results from US8889619B2 (Beijing Dongfang Biotech Co., Ltd., priority 2010, dated 2014).

This test has as its system KK-Ay diabetic model mice. Briefly: Long-term administration experiment, KK-Ay diabetic model mice. It is filed as in vivo, mouse. The note with it: fast blood glucose decrease vs blank control relative to fusion protein of example 2; 1 mg/Kg twice per week, after 2 weeks, fasted 6 h. As for the experimental part:
The drug is given twice per week, and the mice are fasted for 6 h each Wednesday and tested for fast blood glucose, meanwhile their food intake and weight variation are recorded. […] Specifically, long term administration is conducted according to the following protocol: the KK-Ay diabetic model mice are randomized into blank control group (injected only with PBS) and experimental group (injected with 1 mg/Kg of the fusion protein in Table 3). The drug is given twice per week; after 2 weeks, the mice are fasted for 6 h and tested for fasting blood glucose, and the blood glucose decrease of one experimental group is calculated by subtracting the fasting blood glucose of the experimental group from that of the blank control group.

Turning to “SEQ ID NO: 22: fusion protein: peptide hormone SEQ ID NO: 1 (Exendin-4), linker SEQ ID NO: 3, IgG4-Fc”, the Relative bioactivity amounted to 75%.

B1: SEQ ID NO: 15: fusion protein: peptide hormone SEQ ID NO: 16 (differs from SEQ ID NO:2 in 3 sites), linker SEQ ID NO: 3, IgG2-Fc (protein)
chain: HTEGTFTSDASSYLEGQACKEFIAWLVKGRGGGGAGGGGVECPPCPAPPVAGPSVFLFPPKPKDTLMISRTPEVTCVVVDVSHEDPEVQFNWYVDGVEVHNAKTKPREEQFNSTFRVVSVLTVVHQDWLNGKEYKCKVSNKGLPAPIEKTISKTKGQPREPQVYTLPPSREEMTKNQVSLTCLVKGFYPSDIAVEWESNGQPENNYKTTPPMLDSDGSFFLYSKLTVDKSRWQQGNVFSCSVMHEALHNHYTQKSLSLSPGK
modifications: The sequence is synthesized
Molecule B1 had a Relative bioactivity of 94%.

B2: SEQ ID NO: 21: fusion protein: peptide hormone SEQ ID NO: 2 (GLP-1 (7-36) NH2), linker SEQ ID NO: 3, IgG2-Fc (protein)
chain: HAEGTFTSDVSSYLEGQAAKEFIAWLVKGRGGGGAGGGGVECPPCPAPPVAGPSVFLFPPKPKDTLMISRTPEVTCVVVDVSHEDPEVQFNWYVDGVEVHNAKTKPREEQFNSTFRVVSVLTVVHQDWLNGKEYKCKVSNKGLPAPIEKTISKTKGQPREPQVYTLPPSREEMTKNQVSLTCLVKGFYPSDIAVEWESNGQPENNYKTTPPMLDSDGSFFLYSKLTVDKSRWQQGNVFSCSVMHEALHNHYTQKSLSLSPGK
modifications: The sequence is synthesized
B2 returned a Relative bioactivity of 91%.

B3: SEQ ID NO: 19: fusion protein: peptide hormone SEQ ID NO: 20 (differs from SEQ ID NO:2 in 2 sites), linker SEQ ID NO: 3, IgG2-Fc (protein)
chain: HAEGTFTSDLSSYLEGQAIKEFIAWLVKGRGGGGAGGGGVECPPCPAPPVAGPSVFLFPPKPKDTLMISRTPEVTCVVVDVSHEDPEVQFNWYVDGVEVHNAKTKPREEQFNSTFRVVSVLTVVHQDWLNGKEYKCKVSNKGLPAPIEKTISKTKGQPREPQVYTLPPSREEMTKNQVSLTCLVKGFYPSDIAVEWESNGQPENNYKTTPPMLDSDGSFFLYSKLTVDKSRWQQGNVFSCSVMHEALHNHYTQKSLSLSPGK
modifications: The sequence is synthesized
Consider B3, for which the Relative bioactivity was found to be 92%.

B4: SEQ ID NO: 17: fusion protein: peptide hormone SEQ ID NO: 18 (differs from SEQ ID NO:2 in 3 sites), linker SEQ ID NO: 3, IgG2-Fc (protein)
chain: HTEGTFTSDLSSYLEGQASKEFIAWLVKGRGGGGAGGGGVECPPCPAPPVAGPSVFLFPPKPKDTLMISRTPEVTCVVVDVSHEDPEVQFNWYVDGVEVHNAKTKPREEQFNSTFRVVSVLTVVHQDWLNGKEYKCKVSNKGLPAPIEKTISKTKGQPREPQVYTLPPSREEMTKNQVSLTCLVKGFYPSDIAVEWESNGQPENNYKTTPPMLDSDGSFFLYSKLTVDKSRWQQGNVFSCSVMHEALHNHYTQKSLSLSPGK
modifications: The sequence is synthesized
B4 came in with a Relative bioactivity of 93%.

B5: SEQ ID NO: 13: fusion protein: peptide hormone SEQ ID NO: 14 (GLP-1A8G), linker SEQ ID NO: 3, IgG2-Fc (protein)
chain: AAEGTFTGDVSSYLEGQAAKEFIAWLVKGRGGGGGAGGGGVECPPCPAPPVAGPSVFLFPPKPKDTLMISRTPEVTCVVVDVSHEDPEVQFNWYVDGVEVHNAKTKPREEQFNSTFRVVSVLTVVHQDWLNGKEYKCKVSNKGLPAPIEKTISKTKGQPREPQVYTLPPSREEMTKNQVSLTCLVKGFYPSDIAVEWESNGQPENNYKTTPPMLDSDGSFFLYSKLTVDKSRWQQGNVFSCSVMHEALHNHYTQKSLSLSPGK
modifications: The sequence is synthesized
For the molecule B5, the Relative bioactivity worked out at 95%.

B6: SEQ ID NO: 5: fusion protein: peptide hormone SEQ ID NO: 6 (differs from SEQ ID NO:1 in 2 sites), linker SEQ ID NO: 3, IgG2-Fc (protein)
chain: HTEGTFTSDASKQMEEEAVRLFIEWLKDGGPSSGAPPPSGGGGAGGGGVECPPCPAPPVAGPSVFLFPPKPKDTLMISRTPEVTCVVVDVSHEDPEVQFNWYVDGVEVHNAKTKPREEQFNSTFRVVSVLTVVHQDWLNGKEYKCKVSNKGLPAPIEKTISKTKGQPREPQVYTLPPSREEMTKNQVSLTCLVKGFYPSDIAVEWESNGQPENNYKTTPPMLDSDGSFFLYSKLTVDKSRWQQGNVFSCSVMHEALHNHYTQKSLSLSPGK
modifications: The sequence is synthesized
B6 came in with a Relative bioactivity of 99%.

B7: SEQ ID NO: 7: fusion protein: peptide hormone SEQ ID NO: 8 (differs from SEQ ID NO:1 in 3 sites), linker SEQ ID NO: 3, IgG2-Fc (protein)
chain: HTEGTFTSDASLQMEEEAVRLFIEWLKDGGPSSGAPPPSGGGGAGGGGVECPPCPAPPVAGPSVFLFPPKPKDTLMISRTPEVTCVVVDVSHEDPEVQFNWYVDGVEVHNAKTKPREEQFNSTFRVVSVLTVVHQDWLNGKEYKCKVSNKGLPAPIEKTISKTKGQPREPQVYTLPPSREEMTKNQVSLTCLVKGFYPSDIAVEWESNGQPENNYKTTPPMLDSDGSFFLYSKLTVDKSRWQQGNVFSCSVMHEALHNHYTQKSLSLSPGK
modifications: The sequence is synthesized
B7 displayed a Relative bioactivity of 98%.

B8: SEQ ID NO: 11: fusion protein: peptide hormone SEQ ID NO: 12 (differs from SEQ ID NO:1 in 6 sites), linker SEQ ID NO: 3, IgG2-Fc (protein)
chain: HAEGTFTSDASLTYEEEACRLFIEWLKDGGPSSGAPPPSGGGGAGGGGVECPPCPAPPVAGPSVFLFPPKPKDTLMISRTPEVTCVVVDVSHEDPEVQFNWYVDGVEVHNAKTKPREEQFNSTFRVVSVLTVVHQDWLNGKEYKCKVSNKGLPAPIEKTISKTKGQPREPQVYTLPPSREEMTKNQVSLTCLVKGFYPSDIAVEWESNGQPENNYKTTPPMLDSDGSFFLYSKLTVDKSRWQQGNVFSCSVMHEALHNHYTQKSLSLSPGK
modifications: The sequence is synthesized
The molecule B8 registered a Relative bioactivity of 96%.

B9: SEQ ID NO: 9: fusion protein: peptide hormone SEQ ID NO: 10 (differs from SEQ ID NO:1 in 4 sites), linker SEQ ID NO: 3, IgG2-Fc (protein)
chain: HAEGTFTSDASLTMEEEAVRLFIEWLKDGGPSSGAPPPSGGGGAGGGGVECPPCPAPPVAGPSVFLFPPKPKDTLMISRTPEVTCVVVDVSHEDPEVQFNWYVDGVEVHNAKTKPREEQFNSTFRVVSVLTVVHQDWLNGKEYKCKVSNKGLPAPIEKTISKTKGQPREPQVYTLPPSREEMTKNQVSLTCLVKGFYPSDIAVEWESNGQPENNYKTTPPMLDSDGSFFLYSKLTVDKSRWQQGNVFSCSVMHEALHNHYTQKSLSLSPGK
modifications: The sequence is synthesized
B9 came in with a Relative bioactivity of 97%.
